Data as given in paper PMC4731781, “The β2 clamp in the Mycobacterium tuberculosis DNA polymerase III αβ2ε replicase promotes polymerization and reduces exonuclease activity” (Scientific Reports, 2016).
Like-named read-outs stand apart in the source and are kept apart here.

Tests used:
[1] = target: beta2 clamp (Escherichia coli) (UniProt P0A988); settings: cited from earlier work
[2] = target: beta2 clamp (Escherichia coli) (UniProt P0A988); settings: cited from earlier work; remark: listed apart in the source
[3] = target: T1, Mtb DNA Pol III α subunit (DnaE1), purified recombinant (Mycobacterium tuberculosis, UniProt P9WNT7 1-1184); assay: SPR; BIAcore3000, β subunit amine-coupled to the chip (about 1800 RU); α injected at 0.01, 0.1 and 1 μM in 50 mM HEPES pH 7.5, 100 mM NaCl, 0.005% Tween20, 30 μl/min; global fit to a 1:1 Langmuir model; settings: both partners purified
T1 construct: also called Mtb α; MtbDnaE1; source: E. coli, purified
T1 sequence: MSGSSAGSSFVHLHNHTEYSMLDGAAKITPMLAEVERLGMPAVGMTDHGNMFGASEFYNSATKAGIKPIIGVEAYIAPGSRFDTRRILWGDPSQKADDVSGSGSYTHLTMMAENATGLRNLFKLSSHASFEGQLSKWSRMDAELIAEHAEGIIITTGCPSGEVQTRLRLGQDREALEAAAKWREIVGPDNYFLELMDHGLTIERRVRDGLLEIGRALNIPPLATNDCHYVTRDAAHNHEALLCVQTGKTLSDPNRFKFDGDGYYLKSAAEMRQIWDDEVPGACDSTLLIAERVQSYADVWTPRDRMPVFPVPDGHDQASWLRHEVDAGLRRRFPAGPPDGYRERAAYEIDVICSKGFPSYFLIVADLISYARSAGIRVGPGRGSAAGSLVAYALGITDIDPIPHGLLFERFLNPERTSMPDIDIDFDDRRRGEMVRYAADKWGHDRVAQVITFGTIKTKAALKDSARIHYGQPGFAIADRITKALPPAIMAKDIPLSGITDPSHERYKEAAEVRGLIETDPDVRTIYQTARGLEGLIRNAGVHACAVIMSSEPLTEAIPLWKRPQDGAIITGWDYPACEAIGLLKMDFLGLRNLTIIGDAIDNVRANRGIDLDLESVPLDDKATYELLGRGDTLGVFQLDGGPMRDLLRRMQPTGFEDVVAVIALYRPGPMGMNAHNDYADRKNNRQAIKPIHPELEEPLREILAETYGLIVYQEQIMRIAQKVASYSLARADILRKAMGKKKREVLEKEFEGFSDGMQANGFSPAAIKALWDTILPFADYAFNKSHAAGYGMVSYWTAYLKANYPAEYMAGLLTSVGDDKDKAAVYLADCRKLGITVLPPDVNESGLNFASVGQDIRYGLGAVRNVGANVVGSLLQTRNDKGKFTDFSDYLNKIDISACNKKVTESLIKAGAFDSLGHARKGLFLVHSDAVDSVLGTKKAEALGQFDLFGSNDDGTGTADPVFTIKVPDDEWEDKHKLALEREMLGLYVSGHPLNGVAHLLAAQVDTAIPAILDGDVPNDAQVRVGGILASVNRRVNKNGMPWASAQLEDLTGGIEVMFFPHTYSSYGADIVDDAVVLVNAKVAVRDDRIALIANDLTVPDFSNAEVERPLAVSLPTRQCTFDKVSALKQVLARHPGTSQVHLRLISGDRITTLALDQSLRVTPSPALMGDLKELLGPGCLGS

[4] = target: T2, Mtb DNA Pol III δ subunit (HolA) (Mycobacterium tuberculosis, UniProt P71730 1-322); assay: co-purification, densitometry of an SDS-PAGE gel; settings: partners not purified
T2 sequence: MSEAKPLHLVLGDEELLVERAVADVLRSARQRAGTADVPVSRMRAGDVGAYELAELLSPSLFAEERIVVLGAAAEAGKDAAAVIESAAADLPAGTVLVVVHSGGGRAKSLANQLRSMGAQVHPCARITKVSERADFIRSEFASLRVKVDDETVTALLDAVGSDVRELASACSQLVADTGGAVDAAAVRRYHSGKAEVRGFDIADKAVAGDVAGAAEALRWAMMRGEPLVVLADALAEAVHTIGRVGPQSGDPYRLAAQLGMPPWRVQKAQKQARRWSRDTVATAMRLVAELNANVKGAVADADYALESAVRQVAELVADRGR

[5] = target: T3, Mtb DNA Pol III δ’ subunit (HolB) (Mycobacterium tuberculosis, UniProt Q7D554 1-404); assay: co-purification, densitometry of an SDS-PAGE gel; settings: partners not purified
T3 sequence: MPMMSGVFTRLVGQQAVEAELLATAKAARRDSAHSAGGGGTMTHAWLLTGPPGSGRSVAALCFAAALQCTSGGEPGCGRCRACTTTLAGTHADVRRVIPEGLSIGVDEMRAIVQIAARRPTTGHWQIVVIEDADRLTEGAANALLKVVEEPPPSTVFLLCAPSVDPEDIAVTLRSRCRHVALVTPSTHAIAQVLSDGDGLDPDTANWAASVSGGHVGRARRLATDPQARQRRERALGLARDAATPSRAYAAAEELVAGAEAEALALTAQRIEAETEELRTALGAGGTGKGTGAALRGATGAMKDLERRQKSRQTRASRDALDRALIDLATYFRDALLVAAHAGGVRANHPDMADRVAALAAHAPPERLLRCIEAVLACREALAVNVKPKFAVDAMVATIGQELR

beta2 clamp (Escherichia coli), sequence (P0A988 whole entry): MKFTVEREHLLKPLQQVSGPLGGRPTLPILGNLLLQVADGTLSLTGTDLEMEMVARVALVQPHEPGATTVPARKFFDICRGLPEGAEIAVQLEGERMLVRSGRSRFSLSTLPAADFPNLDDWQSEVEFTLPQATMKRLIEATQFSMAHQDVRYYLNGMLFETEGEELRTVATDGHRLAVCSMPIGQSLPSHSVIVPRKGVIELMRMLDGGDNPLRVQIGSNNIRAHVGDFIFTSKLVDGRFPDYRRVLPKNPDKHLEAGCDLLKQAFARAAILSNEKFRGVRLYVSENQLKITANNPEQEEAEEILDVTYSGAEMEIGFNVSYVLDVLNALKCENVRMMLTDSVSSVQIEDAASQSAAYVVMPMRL

Molecule: DNA polymerase III alpha (from UniProt P10443)
- Kd [1]: 1200 nM

Molecule: DNA polymerase III epsilon (from UniProt P03007)
- Kd [2]: 200000 nM

B1: Mtb DNA Pol III β2 clamp (DnaN), purified recombinant (natural protein)
chain: MDAATTRVGLTDLTFRLLRESFADAVSWVAKNLPARPAVPVLSGVLLTGSDNGLTISGFDYEVSAEAQVGAEIVSPGSVLVSGRLLSDITRALPNKPVDVHVEGNRVALTCGNARFSLPTMPVEDYPTLPTLPEETGLLPAELFAEAISQVAIAAGRDDTLPMLTGIRVEILGETVVLAATDRFRLAVRELKWSASSPDIEAAVLVPAKTLAEAAKAGIGGSDVRLSLGTGPGVGKDGLLGISGNGKRSTTRLLDAEFPKFRQLLPTEHTAVATMDVAELIEAIKLVALVADRGAQVRMEFADGSVRLSAGADDVGRAEEDLVVDYAGEPLTIAFNPTYLTDGLSSLRSERVSFGFTTAGKPALLRPVSGDDRPVAGLNGNGPFPAVSTDYVYLLMPVRLPG
notes: DNA polymerase III β subunit (sliding clamp) DnaN of Mycobacterium tuberculosis; also called β subunit; β clamp
- Kd [3]: 10.9 nM

B2: Mtb DNA Pol III τ subunit (DnaZX) (natural protein)
chain: MALYRKYRPASFAEVVGQEHVTAPLSVALDAGRINHAYLFSGPRGCGKTSSARILARSLNCAQGPTANPCGVCESCVSLAPNAPGSIDVVELDAASHGGVDDTRELRDRAFYAPVQSRYRVFIVDEAHMVTTAGFNALLKIVEEPPEHLIFIFATTEPEKVLPTIRSRTHHYPFRLLPPRTMRALLARICEQEGVVVDDAVYPLVIRAGGGSPRDTLSVLDQLLAGAADTHVTYTRALGLLGVTDVALIDDAVDALAACDAAALFGAIESVIDGGHDPRRFATDLLERFRDLIVLQSVPDAASRGVVDAPEDALDRMREQAARIGRATLTRYAEVVQAGLGEMRGATAPRLLLEVVCARLLLPSASDAESALLQRVERIETRLDMSIPAPQAVPRPSAAAAEPKHQPAREPRPVLAPTPASSEPTVAAVRSMWPTVRDKVRLRSRTTEVMLAGATVRALEDNTLVLTHESAPLARRLSEQRNADVLAEALKDALGVNWRVRCETGEPAAAASPVGGGANVATAKAVNPAPTANSTQRDEEEHMLAEAGRGDPSPRRDPEEVALELLQNELGARRIDNA
notes: Three copies in the clamp loader τ3δδ’ by densitometry
- stoichiometry N [4]: 3 τ per δ
- stoichiometry N [5]: 3 τ per δ’
